Kd data for one molecule are collected here from paper PMC12212138, “Crystal structure and mutagenesis of a nucleic acid–binding BRCT domain in human PARP4”.

For the series, the target named is T1, PARP4 BRCT WT (human, UniProt Q9UKK3 1-100).
T1 sequence: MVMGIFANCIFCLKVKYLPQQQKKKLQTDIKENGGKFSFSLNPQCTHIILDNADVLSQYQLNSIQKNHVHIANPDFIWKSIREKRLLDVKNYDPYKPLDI
In words: EMSA; 20 nM probe; FP: 50 mM Tris pH 7.5, 50 mM NaCl, 1 mM MgCl2, 0.05% NP40, 2 mM DTT, 5% glycerol, 25 ug/ml BSA, room temp 30 min; EMSA: 50 mM Tris pH 7.5, 50 mM NaCl, 4% Ficoll PM400, 0.05% NP40, 2 mM DTT, 0-18 uM protein, room temp 30 min, gel at 4 C. To be noted: protein: recombinant; tags: N-terminal His-SUMO removed by TEV; label: 5'-6-FAM; predicted intramolecular fold.

B1: vtRNA1-3 (structured_RNA)
RNA: GGCUGGCUUUAGCUCAGCGGUUACUUCGCGUGUCAUCAAACCACCUCUCUGGGUUGUUCGAGACCCGCGGGCGCUCUCCAGCCCUCUU
By Kd is commonly meant a measure of binding affinity in units of concentration. On to B1, for which the Kd was 500 ± 200 nM.
